The target of test [1] is DLL4.v3. As to the kind of experiment: SPR; N-EGF3. Background: Surface plasmon resonance follows binding to a sensor surface in real time, without labels.
Test [2] addresses hDLL4 site2. The experiment in a line: SPR; N-EGF3.
Test [3] concerns the target T1, Notch2 EGF domains 6-13 (human, UniProt Q04721 221-530).
T1 chain: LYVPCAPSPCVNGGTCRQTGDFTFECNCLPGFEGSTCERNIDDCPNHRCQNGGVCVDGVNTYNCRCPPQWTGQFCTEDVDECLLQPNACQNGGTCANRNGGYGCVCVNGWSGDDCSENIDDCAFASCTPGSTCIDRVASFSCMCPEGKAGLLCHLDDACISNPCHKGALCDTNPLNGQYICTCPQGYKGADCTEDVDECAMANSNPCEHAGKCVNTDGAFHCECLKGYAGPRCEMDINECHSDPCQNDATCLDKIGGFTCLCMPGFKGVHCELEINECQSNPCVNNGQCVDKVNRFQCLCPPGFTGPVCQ
The experiment in a line: SPR.

Test [4] concerns the target T2, Notch 3 EGF domains 5-12 (human, UniProt Q9UM47 197-505).
T2 chain: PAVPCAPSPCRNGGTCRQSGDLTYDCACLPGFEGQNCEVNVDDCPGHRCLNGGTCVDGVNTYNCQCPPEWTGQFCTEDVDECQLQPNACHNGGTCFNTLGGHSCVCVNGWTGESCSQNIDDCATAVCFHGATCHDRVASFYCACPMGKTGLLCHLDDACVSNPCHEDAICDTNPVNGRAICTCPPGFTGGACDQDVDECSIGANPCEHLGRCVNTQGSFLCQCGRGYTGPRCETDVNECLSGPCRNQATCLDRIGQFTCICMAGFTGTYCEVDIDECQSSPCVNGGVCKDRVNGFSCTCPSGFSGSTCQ
The experiment in a line: SPR.

The target in test [5] is T3, Notch1 EGF domains 6-13 (human, UniProt P46531 218-526).
T3 chain: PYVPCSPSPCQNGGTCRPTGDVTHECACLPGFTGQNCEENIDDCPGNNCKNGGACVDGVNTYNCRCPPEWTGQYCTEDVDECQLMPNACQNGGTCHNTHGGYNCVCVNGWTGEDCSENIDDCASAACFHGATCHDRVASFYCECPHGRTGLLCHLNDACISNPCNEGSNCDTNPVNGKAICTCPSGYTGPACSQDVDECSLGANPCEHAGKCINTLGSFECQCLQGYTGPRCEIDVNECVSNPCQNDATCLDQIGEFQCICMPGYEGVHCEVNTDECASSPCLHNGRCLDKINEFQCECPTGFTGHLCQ
The experiment in a line: SPR.

Test [6] addresses T1, Notch2 EGF domains 6-13. As to the kind of experiment: SPR; N-EGF3.
For test [7], the target named is T2, Notch 3 EGF domains 5-12. As to the kind of experiment: SPR; N-EGF3.
In test [8] the target is T3, Notch1 EGF domains 6-13. As to the kind of experiment: SPR; N-EGF3.

B1: hNotch 3 (EGF6-13) (receptor)
chain: T2 chain
With B1, the Kd is 0.0273 µM in test [1] and 1.65 µM in test [2].

B2: hNotch2 (EGF6-13) (receptor)
chain: T1 chain
Turning to B2, the Kd in test [1] turned out to be 0.0314 µM; in test [2], 3.25 µM.

B3: wildtype (WT) human DLL4 (ligand)
chain: SGVFQLQLQEFINERGVLASGRPCEPGCRTFFRVCLKHFQAVVSPGPCTFGTVSTPVLGTNSFAVRDDSSGGGRNPLQLPFNFTWPGTFSLIIEAWHAPGDDLRPEALPPDALISKIAIQGSLAVGQNWLLDEQTSTLTRLRYSYRVICSDNYYGDNCSRLCKKRNDHFGHYVCQPDGNLSCLPGWTGEYCQQPICLSGCHEQNGYCSKPAECLCRPGWQGRLCNECIPHNGCRHGTCSTPWQCTCDEGWGGLFCDQDLNYCTHHSPCKNGATCSNSGQRSYTCTCRPGYTGVDCE
Take B3: the dissociation constant (Kd) came to 4.99 µM in test [3]; 10.4 µM in test [4]; 4.04 µM in test [5]; 35.7 µM in test [6]; 22.2 µM in test [7]; 17.9 µM in test [8].

B4: hNotch1 (EGF6-13) (receptor)
chain: T3 chain
Consider B4, for which the results for the dissociation constant (Kd) in test [1] and in test [2] were 0.02 µM and 0.471 µM, respectively.

In general, Kd refers to the equilibrium constant for the complex coming apart. Low readings indicate a tighter complex, high ones a looser complex.

These data come from US20220348617A1 (published 2022).
